Measured values reported in the supplement of paper PMC9112550, “Optimization of the antimicrobial peptide Bac7 by deep mutational scanning” (BMC Biology, 2022).

test system: Escherichia coli TOP10; assay: shrunken log2 fold change of peptide-encoding DNA abundance (4.5 h post-induction vs induction); higher = less antimicrobial activity (less host growth inhibition); details: time post-induction: 4.5 h; library: site-saturation at positions 5, 18, 19, 20
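Note: peptides expressed intracellularly from a pBAD plasmid library in pooled LB shake-flask culture, induced with 0.3% L-arabinose, DNA abundance read by NGS, three biological replicates, DESeq2 with apeglm shrinkage.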

Sequence | shrunken log2 fold change
RRIRSRPPRLPRPRPRPMYLPRP | -0.0356
RRIRARPPRLPRPRPRPLFWPRP | 0.678
RRIRDRPPRLPRPRPRPVYPPRP | -0.089
RRIRWRPPRLPRPRPRPIHCPRP | 0.0948
RRIRVRPPRLPRPRPRPPFFPRP | 0.193
RRIRERPPRLPRPRPRPIPLPRP | -0.275
RRIRFRPPRLPRPRPRPSEPPRP | -0.0424
RRIRKRPPRLPRPRPRPIYVPRP | 0.0461
RRIRHRPPRLPRPRPRPAELPRP | -0.00261
RRIRYRPPRLPRPRPRPCIIPRP | -1.51
RRIRKRPPRLPRPRPRPAYPPRP | -0.0401
RRIRMRPPRLPRPRPRPVHLPRP | -0.0129
RRIRDRPPRLPRPRPRPKYGPRP | -0.0519
RRIRTRPPRLPRPRPRPVPEPRP | 0.323
RRIRRRPPRLPRPRPRPKRMPRP | 0.514
RRIRMRPPRLPRPRPRPGLTPRP | 1.02
RRIRNRPPRLPRPRPRPPQAPRP | 0.0708
RRIRRRPPRLPRPRPRPPPYPRP | 0.366
RRIRYRPPRLPRPRPRPKEYPRP | 0.171
RRIRCRPPRLPRPRPRPEMEPRP | 0.00408

Sequence | shrunken log2 fold change
RRIRDRPPRLPRPRPRPNIKPRP | -0.384
RRIRERPPRLPRPRPRPDMYPRP | -0.0361
RRIRPRPPRLPRPRPRPKEHPRP | -0.202
RRIRQRPPRLPRPRPRPGRAPRP | 0.474
RRIRARPPRLPRPRPRPCPCPRP | -0.0932
RRIRHRPPRLPRPRPRPELSPRP | 0.252
RRIRTRPPRLPRPRPRPLCHPRP | -0.175
RRIRFRPPRLPRPRPRPTSEPRP | 0.0114
RRIRVRPPRLPRPRPRPVHPPRP | 0.312
RRIRFRPPRLPRPRPRPGKNPRP | 0.0341
RRIRHRPPRLPRPRPRPLVWPRP | 0.482
RRIRLRPPRLPRPRPRPQPPPRP | 0.517
RRIRWRPPRLPRPRPRPAAAPRP | 1.21
RRIRPRPPRLPRPRPRPMVLPRP | 0.0636
RRIRWRPPRLPRPRPRPMLSPRP | -0.0162
RRIRDRPPRLPRPRPRPPREPRP | 0.837
RRIRTRPPRLPRPRPRPRNYPRP | -0.0303
RRIRQRPPRLPRPRPRPNVHPRP | -0.258
RRIRYRPPRLPRPRPRPVLCPRP | -0.272
RRIRTRPPRLPRPRPRPSQHPRP | -0.387

Sequence | shrunken log2 fold change
RRIRTRPPRLPRPRPRPYQFPRP | 0.0636
RRIRWRPPRLPRPRPRPKMNPRP | 0.0146
RRIRHRPPRLPRPRPRPMAAPRP | 0.53
RRIRGRPPRLPRPRPRPLRIPRP | 0.175
RRIRTRPPRLPRPRPRPTRPPRP | 0.614
RRIRNRPPRLPRPRPRPRWYPRP | -0.194
RRIRPRPPRLPRPRPRPMAYPRP | -0.126
RRIRIRPPRLPRPRPRPWEPPRP | -0.146
RRIRSRPPRLPRPRPRPVVMPRP | 0.0334
RRIRIRPPRLPRPRPRPQICPRP | -0.0396
RRIRLRPPRLPRPRPRPTWQPRP | 0.187
RRIRGRPPRLPRPRPRPVLYPRP | 0.069
RRIRYRPPRLPRPRPRPTVPPRP | -0.382
RRIRCRPPRLPRPRPRPVDMPRP | -0.247
RRIRFRPPRLPRPRPRPITFPRP | -0.456
RRIRCRPPRLPRPRPRPKSAPRP | 0.146
RRIRIRPPRLPRPRPRPFIFPRP | -0.696
RRIRTRPPRLPRPRPRPDGHPRP | -0.102
RRIRMRPPRLPRPRPRPHEGPRP | 0.443
RRIRGRPPRLPRPRPRPDHAPRP | 0.217
